# B1: chemotaxis histidine kinase (CheA) (enzyme)
# chain: MSMDISDFYQTFFDEADELLADMEQHLLVLQPEAPDAEQLNAIFRAAHSIKGGAGTFGFSVLQETTHLMENLLDEARRGEMQLNTDIINLFLETKDIMQEQLDAYKQSQEPDAASFDYICQALRQLALEAKGETPSAVTRLSVVAKSEPQDEQSRSQSPRRIILSRLKAGEVDLLEEELGHLTTLTDVVKGADSLSAILPGDIAEDDITAVLCFVIEADQITFETVEVSPKISTPPVLKLAAEQAPTGRVEREKTTRSNESTSIRVAVEKVDQLINLVGELVITQSMLAQRSSELDPVNHGDLITSMGQLQRNARDLQESVMSIRMMPMEYVFSRYPRLVRDLAGKLGKQVELTLVGSSTELDKSLIERIIDPLTHLVRNSLDHGIELPEKRLAAGKNSVGNLILSAEHQGGNICIEVTDDGAGLNRERILAKAASQGLTVSENMSDDEVAMLIFAPGFSTAEQVTDVSGRGVGMDVVKRNIQKMGGHVEIQSKQGTGTTIRILLPLTLAILDGMSVRVADEVFILPLNAVMESLQPREADLHPLAGGERVLEVRGEYLPIVELWKVFNVAGAKTEATQGIVVILQSGGRRYALLVDQLIGQHQVVVKNLESNYRKVPGISAATILGDGSVALIVDVSALQAINREQRMANTAA
# Tests used:
# CheA (Escherichia coli) = CheA (Escherichia coli) (UniProt P07363); details: cited from earlier work
# [1] = biological target: cytoplasmic fragment of the E coli Asp receptor (CF4Q) (E. coli); test: co-sedimentation
Molecule,Kd (CheA (Escherichia coli)) [µM],fraction of CheA bound [1] [%]
CheA (from UniProt P07363),0.49,
B1,,88
